Molecular target: CD40 (Cluster of Differentiation 40) on cells (UniProt P25942)
Sequence (P25942 21-277 limits assumed): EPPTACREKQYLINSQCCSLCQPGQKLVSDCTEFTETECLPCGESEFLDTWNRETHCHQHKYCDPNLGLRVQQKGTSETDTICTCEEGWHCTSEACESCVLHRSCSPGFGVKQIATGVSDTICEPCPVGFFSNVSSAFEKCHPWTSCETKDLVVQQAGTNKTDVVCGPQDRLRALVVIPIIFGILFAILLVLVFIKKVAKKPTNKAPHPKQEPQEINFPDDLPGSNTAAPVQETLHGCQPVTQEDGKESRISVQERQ

Chain of CD40L (Invivogen), native CD40 binding partner (P29965 113-261 limits assumed): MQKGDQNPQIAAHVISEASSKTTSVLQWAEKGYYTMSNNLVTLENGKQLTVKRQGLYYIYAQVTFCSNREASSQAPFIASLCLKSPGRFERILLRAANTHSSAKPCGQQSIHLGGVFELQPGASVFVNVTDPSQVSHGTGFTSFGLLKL

EC50, CD40 RGA, FcgRIIB CHOK1: 0.81 mg/L | EC50, CD40 RGA, HEK Blue only: 0.43 mg/L | EC50, CD40 RGA, WT CHOK1: 0.44 mg/L | Fold wrt WT (EC50, relative to v32477 - uPa), CD40 RGA, FcgRIIB CHOK1: 16.6 fold | Fold wrt WT (EC50, relative to v32477 - uPa), CD40 RGA, HEK Blue only: 2.76 fold | Fold wrt WT (EC50, relative to v32477 - uPa), CD40 RGA, WT CHOK1: 3.19 fold
Substance: CD40L (Invivogen), native CD40 binding partner (from UniProt P29965 113-261) (ligand)
